Experimental data reported in patent publication US20150344570A1 (published 2015).

Columns and labels:
[1] = biological target: T1, FcγRIIb extracellular domain with C-terminal His tag (human, UniProt P31994 43-217); experiment: SPR (Biacore), antibody captured, FcγR analyte; relative to GpH7-A5/GpH7-B3/GpL16-k0 = 100
T1 construct: extracellular domain; also called FcgRIIb; CD32B; not shown: His tag at the C terminus
T1 sequence (looked up): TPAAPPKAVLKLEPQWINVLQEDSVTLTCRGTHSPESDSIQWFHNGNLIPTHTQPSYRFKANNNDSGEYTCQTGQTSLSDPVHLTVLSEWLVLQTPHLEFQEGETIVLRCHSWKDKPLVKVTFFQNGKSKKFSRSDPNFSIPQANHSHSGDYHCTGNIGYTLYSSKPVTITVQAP

[2] = biological target: T2, FcγRIa extracellular domain with C-terminal His tag (human, UniProt P12314 16-292); experiment: as above
T2 construct: extracellular domain; also called FcgRI; CD64; not shown: His tag at the C terminus

[3] = biological target: T2, FcγRIa extracellular domain with …; experiment: SPR; He/Con_1a divided by He/Con_2b (FcγRIa against FcγRIIb)
[4] = biological target: T3, FcγRIIIa (human, UniProt P08637 17-208); experiment: SPR; He/Con_3a (FcγRIIIa) divided by He/Con_2b (FcγRIIb)
T3 construct: extracellular domain; Soluble extracellular domain with a C-terminal His tag; also called FcgRIIIa; 3a; not shown: His tag attached to the C terminus

[5] = biological target: T4, FcγRIIb (human, UniProt P31994 43-217); experiment: SPR (Biacore), antibody captured on chip, FcγR as analyte
T4 construct: extracellular domain; Soluble extracellular domain with a C-terminal His tag, expressed in FreeStyle293 cells; also called FcgRIIb; 2b; not shown: His tag attached to the C terminus
T4 sequence (looked up): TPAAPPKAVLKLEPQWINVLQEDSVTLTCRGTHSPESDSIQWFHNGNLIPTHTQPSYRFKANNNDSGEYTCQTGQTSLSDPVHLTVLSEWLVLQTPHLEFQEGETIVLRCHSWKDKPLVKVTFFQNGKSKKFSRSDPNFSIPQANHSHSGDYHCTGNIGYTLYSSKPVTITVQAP

[6] = biological target: T3, FcγRIIIa; experiment: as above

T3 sequence (P08637 17-208): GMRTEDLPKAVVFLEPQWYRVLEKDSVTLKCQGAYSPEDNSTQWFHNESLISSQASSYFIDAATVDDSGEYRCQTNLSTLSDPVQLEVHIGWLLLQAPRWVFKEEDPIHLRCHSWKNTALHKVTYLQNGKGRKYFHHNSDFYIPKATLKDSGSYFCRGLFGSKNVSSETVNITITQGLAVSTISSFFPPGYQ
T2 sequence (P12314 16-292): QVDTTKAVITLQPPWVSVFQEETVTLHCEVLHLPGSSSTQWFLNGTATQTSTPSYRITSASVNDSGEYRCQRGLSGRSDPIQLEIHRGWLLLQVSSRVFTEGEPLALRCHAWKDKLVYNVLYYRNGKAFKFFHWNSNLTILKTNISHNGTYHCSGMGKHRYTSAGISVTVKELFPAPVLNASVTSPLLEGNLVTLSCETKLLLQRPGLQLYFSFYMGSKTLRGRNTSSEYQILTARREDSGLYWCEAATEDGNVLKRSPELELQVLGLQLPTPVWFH

B1: GpH7-A5/GpH7-B3 variant G236_06M/GpL16-k0 (antibody, human IgG1, kappa)
heavy 1: not shown
heavy 2: not shown
light: DIVMTQSPLSLPVTPGEPASISCQASESLVHSNRNTYLHWYLQKPGQSPQLLIYKVSNRFSGVPDRFSGSGSGTDFTLKISRVEAEDVGVYYCSQNTHVPPTFGQGTKVEIERTVAAPSVFIFPPSDEQLKSGTASVVCLLNNFYPREAKVQWKVDNALQSGNSQESVTEQDSKDSTYSLSSTLTLSKADYEKHKVYACEVTHQGLSSPVTKSFNRGEC
notes: Heterodimerized anti-glypican-3 IgG1; mutation only in the GpH7-B3 H chain; also called He Ab
- He/Con_2b [1]: 45.5 % of HeCon Ab
- He/Con_1a [2]: 96.7 % of HeCon Ab
- He_1a/2b (Ia/IIb) [3]: 2.13 ratio

B2: GpH7-A5/GpH7-B3 variant G236_07I/GpL16-k0 (antibody, human IgG1, kappa)
heavy 1: not shown
heavy 2: not shown
light: DIVMTQSPLSLPVTPGEPASISCQASESLVHSNRNTYLHWYLQKPGQSPQLLIYKVSNRFSGVPDRFSGSGSGTDFTLKISRVEAEDVGVYYCSQNTHVPPTFGQGTKVEIERTVAAPSVFIFPPSDEQLKSGTASVVCLLNNFYPREAKVQWKVDNALQSGNSQESVTEQDSKDSTYSLSSTLTLSKADYEKHKVYACEVTHQGLSSPVTKSFNRGEC
notes: as for B1
- He/Con_2b [1]: 31 % of HeCon Ab
- He/Con_1a [2]: 87.5 % of HeCon Ab
- He_1a/2b (Ia/IIb) [3]: 2.82 ratio

B3: GpH7-A5/GpH7-B3 variant G236_08L/GpL16-k0 (antibody, human IgG1, kappa)
heavy 1: not shown
heavy 2: not shown
light: DIVMTQSPLSLPVTPGEPASISCQASESLVHSNRNTYLHWYLQKPGQSPQLLIYKVSNRFSGVPDRFSGSGSGTDFTLKISRVEAEDVGVYYCSQNTHVPPTFGQGTKVEIERTVAAPSVFIFPPSDEQLKSGTASVVCLLNNFYPREAKVQWKVDNALQSGNSQESVTEQDSKDSTYSLSSTLTLSKADYEKHKVYACEVTHQGLSSPVTKSFNRGEC
notes: as for B1
- He/Con_2b [1]: 26.8 % of HeCon Ab
- He/Con_1a [2]: 79.6 % of HeCon Ab
- He_1a/2b (Ia/IIb) [3]: 2.97 ratio

B4: GpH7-A5/GpH7-B3 variant G236_11K/GpL16-k0 (antibody, human IgG1, kappa)
heavy 1: not shown
heavy 2: not shown
light: DIVMTQSPLSLPVTPGEPASISCQASESLVHSNRNTYLHWYLQKPGQSPQLLIYKVSNRFSGVPDRFSGSGSGTDFTLKISRVEAEDVGVYYCSQNTHVPPTFGQGTKVEIERTVAAPSVFIFPPSDEQLKSGTASVVCLLNNFYPREAKVQWKVDNALQSGNSQESVTEQDSKDSTYSLSSTLTLSKADYEKHKVYACEVTHQGLSSPVTKSFNRGEC
notes: as for B1
- He/Con_2b [1]: 49.8 % of HeCon Ab
- He/Con_1a [2]: 71 % of HeCon Ab
- He_1a/2b (Ia/IIb) [3]: 1.42 ratio

B5: GpH7-A5/GpH7-B3 variant S239_04F/GpL16-k0 (antibody, human IgG1, kappa)
heavy 1: not shown
heavy 2: not shown
light: DIVMTQSPLSLPVTPGEPASISCQASESLVHSNRNTYLHWYLQKPGQSPQLLIYKVSNRFSGVPDRFSGSGSGTDFTLKISRVEAEDVGVYYCSQNTHVPPTFGQGTKVEIERTVAAPSVFIFPPSDEQLKSGTASVVCLLNNFYPREAKVQWKVDNALQSGNSQESVTEQDSKDSTYSLSSTLTLSKADYEKHKVYACEVTHQGLSSPVTKSFNRGEC
notes: Heterodimerized anti-glypican-3 IgG1; the mutation is in the GpH7-B3 chain only; also called He Ab
- He_3a/2b (IIIa/IIb) [4]: 0.57 ratio
- He/Con_2b [5]: 44.1 relative binding, GpH7-A5/GpH7-B3/GpL16-k0 = 100
- He/Con_3a [6]: 25.3 relative binding, GpH7-A5/GpH7-B3/GpL16-k0 = 100

B6: GpH7-A5/GpH7-B3 variant S239_05P/GpL16-k0 (antibody, human IgG1, kappa)
heavy 1: not shown
heavy 2: not shown
light: DIVMTQSPLSLPVTPGEPASISCQASESLVHSNRNTYLHWYLQKPGQSPQLLIYKVSNRFSGVPDRFSGSGSGTDFTLKISRVEAEDVGVYYCSQNTHVPPTFGQGTKVEIERTVAAPSVFIFPPSDEQLKSGTASVVCLLNNFYPREAKVQWKVDNALQSGNSQESVTEQDSKDSTYSLSSTLTLSKADYEKHKVYACEVTHQGLSSPVTKSFNRGEC
notes: as for B5
- He_3a/2b (IIIa/IIb) [4]: 0.15 ratio
- He/Con_2b [5]: 102 relative binding, GpH7-A5/GpH7-B3/GpL16-k0 = 100
- He/Con_3a [6]: 14.9 relative binding, GpH7-A5/GpH7-B3/GpL16-k0 = 100

B7: GpH7-A5/GpH7-B3 variant S239_06M/GpL16-k0 (antibody, human IgG1, kappa)
heavy 1: not shown
heavy 2: not shown
light: DIVMTQSPLSLPVTPGEPASISCQASESLVHSNRNTYLHWYLQKPGQSPQLLIYKVSNRFSGVPDRFSGSGSGTDFTLKISRVEAEDVGVYYCSQNTHVPPTFGQGTKVEIERTVAAPSVFIFPPSDEQLKSGTASVVCLLNNFYPREAKVQWKVDNALQSGNSQESVTEQDSKDSTYSLSSTLTLSKADYEKHKVYACEVTHQGLSSPVTKSFNRGEC
notes: as for B5
- He_3a/2b (IIIa/IIb) [4]: 0.78 ratio
- He/Con_2b [5]: 101 relative binding, GpH7-A5/GpH7-B3/GpL16-k0 = 100
- He/Con_3a [6]: 78.2 relative binding, GpH7-A5/GpH7-B3/GpL16-k0 = 100

B8: GpH7-A5/GpH7-B3 variant S239_07I/GpL16-k0 (antibody, human IgG1, kappa)
heavy 1: not shown
heavy 2: not shown
light: DIVMTQSPLSLPVTPGEPASISCQASESLVHSNRNTYLHWYLQKPGQSPQLLIYKVSNRFSGVPDRFSGSGSGTDFTLKISRVEAEDVGVYYCSQNTHVPPTFGQGTKVEIERTVAAPSVFIFPPSDEQLKSGTASVVCLLNNFYPREAKVQWKVDNALQSGNSQESVTEQDSKDSTYSLSSTLTLSKADYEKHKVYACEVTHQGLSSPVTKSFNRGEC
notes: as for B5
- He_3a/2b (IIIa/IIb) [4]: 0.74 ratio
- He/Con_2b [5]: 107 relative binding, GpH7-A5/GpH7-B3/GpL16-k0 = 100
- He/Con_3a [6]: 79.3 relative binding, GpH7-A5/GpH7-B3/GpL16-k0 = 100

B9: GpH7-A5/GpH7-B3 variant S239_08L/GpL16-k0 (antibody, human IgG1, kappa)
heavy 1: not shown
heavy 2: not shown
light: DIVMTQSPLSLPVTPGEPASISCQASESLVHSNRNTYLHWYLQKPGQSPQLLIYKVSNRFSGVPDRFSGSGSGTDFTLKISRVEAEDVGVYYCSQNTHVPPTFGQGTKVEIERTVAAPSVFIFPPSDEQLKSGTASVVCLLNNFYPREAKVQWKVDNALQSGNSQESVTEQDSKDSTYSLSSTLTLSKADYEKHKVYACEVTHQGLSSPVTKSFNRGEC
notes: as for B5
- He_3a/2b (IIIa/IIb) [4]: 0.68 ratio
- He/Con_2b [5]: 140 relative binding, GpH7-A5/GpH7-B3/GpL16-k0 = 100
- He/Con_3a [6]: 95.3 relative binding, GpH7-A5/GpH7-B3/GpL16-k0 = 100

B10: GpH7-A5/GpH7-B3 variant S239_11K/GpL16-k0 (antibody, human IgG1, kappa)
heavy 1: not shown
heavy 2: not shown
light: DIVMTQSPLSLPVTPGEPASISCQASESLVHSNRNTYLHWYLQKPGQSPQLLIYKVSNRFSGVPDRFSGSGSGTDFTLKISRVEAEDVGVYYCSQNTHVPPTFGQGTKVEIERTVAAPSVFIFPPSDEQLKSGTASVVCLLNNFYPREAKVQWKVDNALQSGNSQESVTEQDSKDSTYSLSSTLTLSKADYEKHKVYACEVTHQGLSSPVTKSFNRGEC
notes: as for B5
- He_3a/2b (IIIa/IIb) [4]: 0.48 ratio
- He/Con_2b [5]: 24.7 relative binding, GpH7-A5/GpH7-B3/GpL16-k0 = 100
- He/Con_3a [6]: 11.9 relative binding, GpH7-A5/GpH7-B3/GpL16-k0 = 100

B11: GpH7-A5/GpH7-B3 variant S239_12R/GpL16-k0 (antibody, human IgG1, kappa)
heavy 1: not shown
heavy 2: not shown
light: DIVMTQSPLSLPVTPGEPASISCQASESLVHSNRNTYLHWYLQKPGQSPQLLIYKVSNRFSGVPDRFSGSGSGTDFTLKISRVEAEDVGVYYCSQNTHVPPTFGQGTKVEIERTVAAPSVFIFPPSDEQLKSGTASVVCLLNNFYPREAKVQWKVDNALQSGNSQESVTEQDSKDSTYSLSSTLTLSKADYEKHKVYACEVTHQGLSSPVTKSFNRGEC
notes: as for B5
- He_3a/2b (IIIa/IIb) [4]: 0.44 ratio
- He/Con_2b [5]: 39.1 relative binding, GpH7-A5/GpH7-B3/GpL16-k0 = 100
- He/Con_3a [6]: 17 relative binding, GpH7-A5/GpH7-B3/GpL16-k0 = 100

B12: GpH7-A5/GpH7-B3 variant S239_15Y/GpL16-k0 (antibody, human IgG1, kappa)
heavy 1: not shown
heavy 2: not shown
light: DIVMTQSPLSLPVTPGEPASISCQASESLVHSNRNTYLHWYLQKPGQSPQLLIYKVSNRFSGVPDRFSGSGSGTDFTLKISRVEAEDVGVYYCSQNTHVPPTFGQGTKVEIERTVAAPSVFIFPPSDEQLKSGTASVVCLLNNFYPREAKVQWKVDNALQSGNSQESVTEQDSKDSTYSLSSTLTLSKADYEKHKVYACEVTHQGLSSPVTKSFNRGEC
notes: as for B5
- He_3a/2b (IIIa/IIb) [4]: 0.73 ratio
- He/Con_2b [5]: 34.9 relative binding, GpH7-A5/GpH7-B3/GpL16-k0 = 100
- He/Con_3a [6]: 25.6 relative binding, GpH7-A5/GpH7-B3/GpL16-k0 = 100

B13: GpH7-A5/GpH7-B3 variant S239_16H/GpL16-k0 (antibody, human IgG1, kappa)
heavy 1: not shown
heavy 2: not shown
light: DIVMTQSPLSLPVTPGEPASISCQASESLVHSNRNTYLHWYLQKPGQSPQLLIYKVSNRFSGVPDRFSGSGSGTDFTLKISRVEAEDVGVYYCSQNTHVPPTFGQGTKVEIERTVAAPSVFIFPPSDEQLKSGTASVVCLLNNFYPREAKVQWKVDNALQSGNSQESVTEQDSKDSTYSLSSTLTLSKADYEKHKVYACEVTHQGLSSPVTKSFNRGEC
notes: as for B5
- He_3a/2b (IIIa/IIb) [4]: 0.59 ratio
- He/Con_2b [5]: 49.4 relative binding, GpH7-A5/GpH7-B3/GpL16-k0 = 100
- He/Con_3a [6]: 29.2 relative binding, GpH7-A5/GpH7-B3/GpL16-k0 = 100

B14: GpH7-A5/GpH7-B3 variant S239_19Q/GpL16-k0 (antibody, human IgG1, kappa)
heavy 1: not shown
heavy 2: not shown
light: DIVMTQSPLSLPVTPGEPASISCQASESLVHSNRNTYLHWYLQKPGQSPQLLIYKVSNRFSGVPDRFSGSGSGTDFTLKISRVEAEDVGVYYCSQNTHVPPTFGQGTKVEIERTVAAPSVFIFPPSDEQLKSGTASVVCLLNNFYPREAKVQWKVDNALQSGNSQESVTEQDSKDSTYSLSSTLTLSKADYEKHKVYACEVTHQGLSSPVTKSFNRGEC
notes: as for B5
- He_3a/2b (IIIa/IIb) [4]: 0.66 ratio
- He/Con_2b [5]: 86.1 relative binding, GpH7-A5/GpH7-B3/GpL16-k0 = 100
- He/Con_3a [6]: 56.9 relative binding, GpH7-A5/GpH7-B3/GpL16-k0 = 100
